“Also recorded” adds a separate entry of the source.
How the values were obtained:
[1] = tested on: iPSC-derived pancreatic progenitors; assay: Acinar differentiation of iPSC-derived pancreatic progenitors (ICC); assay type: cell-based, human; details: for PDX1 levels / expression / amylase positive clusters / cells: Notch modulation in the presence of FGF10
Method: Using the same DMEM base media, cells were then treated daily for seven days with XXI, FGF10, Noggin, Nicotinamide, and Murine Wnt3a (Peprotech). By the end of this stage, cell clustering could be seen.
Planar fixed samples were fixed with 4% paraformaldehyde in PBS for 15 minutes. Following this, they were washed three times with PBS and then incubated with 10% donkey serum with 0.1% Triton-X for one hour. Primary antibodies diluted in the 10% blocking serum were added, and the samples were let incubate for three hours at room temperature or overnight at 4 C. From here, the samples were washed three times for five minutes each with 0.1% TWEEN in PBS. Secondary antibodies diluted at 1:1000 in the blocking serum were added and the samples were allowed to sit one hour at room temperature. Three rounds of five-minute washes with PBS were performed before Hoechst was added at a 1:2000 dilution in PBS. After a 15-minute room temperature incubation, samples were washed with PBS three times before being imaged.
We performed an experiment comparing the use of notch inhibitor XXI vs notch activator sDLL-1 with FGF10. […] We added Wnt3a as it is important.

[2] = tested on: iPSC-derived pancreatic progenitors; assay: iPan Ductal maturation/specification (qPCR, ICC); assay type: cell-based, human
Method: After 1 day of Phase III, on Day 7, cells were single cell dissociated with TrypLE for 3-6 minutes, washed and seeded at 33% confluency (9.5×10^4 cells/cm^2) in Phase III media plus 10 μM Rho kinase Inhibitor. On Day 8 onwards, cells were treated with Phase IV media—addition of FGF10 (25 ng/ml), EGF (50 ng/ml), and sDLL-1 (25 ng/ml, Peprotech). The base media for phase III and IV consists of DMEM, lx Pen-Strep, 1×B27 without Vitamin A (Thermo Fisher), and Vitamin C (250 μM).
For organoids, Cell Recovery Solution (Corning) was added for an hour in 4° to remove Matrigel then washed 3× with PBS. Total RNA was isolated with RLT buffer (Qiagen), syringed with 23 G needle, then extracted with RNeasy Micro Kit (Qiagen) according to the manufacturer's instructions. The concentration and the purity of RNA was determined with NanoDrop. 1-2 μg RNA was reverse transcribed to cDNA High-Capacity cDNA Reverse Transcription kit (Thermo Fisher). Real-time qPCR was performed (technical replicates, n=3-4) using SYBR Master Mix (Applied Biosystems, #4472952) and specific primer sequences to each gene (Table 1), on a CFX384 Real Time system (Bio-Rad). Human RPL13 was used as the reference gene and relative expression was determined using 2-ΔΔ Ct method.
Planar cultures were fixed with 4% PFA for 15 minutes, washed with PBS and then blocked overnight at 4° C. with 10% donkey serum containing 0.1% Triton-X100. After overnight incubation with primary antibodies at 4° C., cells were washed with 0.1% TWEEN-20 3× for 5 min, incubated with secondary antibodies for an hour at RT, and finally incubated with Hoechst 33342 (1:2000 dilution) for 15 minutes for nuclear counterstaining.
To optimize the ductal maturation phase, the effect of dissociating pancreatic progenitors on Day 7 and adding growth factor EGF and the Notch activating ligand sDLL-1 to the cultures was explored. FGF10 was also added at this time to increase proliferation of pancreatic cells. Based on our results, we incorporated a dissociation step prior to initiating EGF and Notch signaling in our defined iPan Ductal protocol (FIG. 2A). Dissociation of pancreatic progenitor cells inhibited acinar differentiation by Day 21 (FIG. 2B).

[3] = sDLL1 for 2 weeks started late, at pancreatic endoderm stage, Day 21

## C[C@H](NC(=O)Cc1cc(F)cc(F)c1)C(=O)N[C@H]1N=C(c2ccccc2)c2ccccc2N(C)C1=O [XXI]
[1]
  PDX1 levels / expression: reduces PDX1 expression; also recorded: lowest PDX1 levels
  amylase positive clusters / cells: increases islands of amylase positive cells; also recorded: most increase in amylase positive clusters

## EGF: growth factor EGF
[2]; dissociated cells exposed to EGF
  survival and confluency (immunocytochemistry): increased survival and confluency
[2]; dissociated cells with exposure to EGF
  levels of ductal markers KRT19, HNF1B, SOX9, FOXA2: increased levels of ductal KRT19, HNF1B, SOX9, and FOXA2 markers

B1: FGF10: growth factor added to increase proliferation of pancreatic cells; activates PDX1 (protein, UniProt O15520 38-208, looked up)
Fibroblast growth factor 10: QALGQDMVSPEATNSSSSSFSSPSSAGRHVRSYNHLQGDVRWRKLFSFTKYFLKIEKNGKVSGTKKENCPYSILEITSVEIGVVAVKAINSNYYLAMNKKGKLYGSKEFNNDCKLKERIEENGYNTYASFNWQHNGRQMYVALNGKGAPRRGQKTRRKNTSAHFLPMVVHS
[1]; FGF10 tested at 0, 2.5, 20 and 50 ng/mL, result for 20 ng
  CTRC and amylase positive cell expression: most CTRC and amylase positive cell expression

B2: sDLL1: Notch-activating ligand; extracellular signaling domain of DLL1 (protein, UniProt O00548 18-545, looked up)
extracellular domain: QVWSSGVFELKLQEFVNKKGLLGNRNCCRGGAGPPPCACRTFFRVCLKHYQASVSPEPPCTYGSAVTPVLGVDSFSLPDGGGADSAFSNPIRFPFGFTWPGTFSLIIEALHTDSPDDLATENPERLISRLATQRHLTVGEEWSQDLHSSGRTDLKYSYRFVCDEHYYGEGCSVFCRPRDDAFGHFTCGERGEKVCNPGWKGPYCTEPICLPGCDEQHGFCDKPGECKCRVGWQGRYCDECIRYPGCLHGTCQQPWQCNCQEGWGGLFCNQDLNYCTHHKPCKNGATCTNTGQGSYTCSCRPGYTGATCELGIDECDPSPCKNGGSCTDLENSYSCTCPPGFYGKICELSAMTCADGPCFNGGRCSDSPDGGYSCRCPVGYSGFNCEKKIDYCSSSPCSNGAKCVDLGDAYLCRCQAGFSGRHCDDNVDDCASSPCANGGTCRDGVNDFSCTCPPGYTGRNCSAPVSRCEHAPCHNGATCHERGHRYVCECARGYGGPNCQFLLPELPPGPAVVDLTEKLEGQGGPFPW
modifications: extracellular domain
notes: extracellular signaling domain of DLL1
[1]
  PDX1 levels / expression: does not increase the Amylase positive clusters or decrease PDX1 levels
  amylase positive clusters / cells: does not increase the Amylase positive clusters
[2]; [3]
  C-Peptide+ endocrine cells: C-Peptide was elevated; also recorded: higher amount of C-Peptide^+ endocrine cells
  ductal markers: no increase in ductal markers
